Results published in patent publication US11708423B2, “Chimeric engulfment receptor molecules and methods of use” (CERO THERAPEUTICS, INC., priority 2017, dated 2023).

Assays:
[1] = system: CER-transduced CD4+ T cells; assay: Mass cytometry (CyTOF) with viSNE marker analysis of CER-transduced CD4+ T cells; type: cell-based, human
From the text: CD4+ T cells were transduced with lentiviral vector comprising CER104, CER116, or CER117 nucleic acid. CER104 (SEQ ID NO:133) comprises a Tim4 binding domain, Tim4 transmembrane domain, and an engulfment signaling domain comprising a primary engulfment signaling domain comprising a TLR8 signaling domain and a secondary engulfment signaling domain comprising a DAP12 signaling domain. CER116 (SEQ ID NO:143) comprises a Tim4 binding domain, Tim4 transmembrane domain, and an engulfment signaling domain comprising a primary engulfment signaling domain comprising a TRAF6 signaling domain and a secondary engulfment signaling domain comprising a TLR8 signaling domain. CER117 (SEQ ID NO:144) comprises a Tim4 binding domain, Tim4 transmembrane domain, and an engulfment signaling domain comprising a primary engulfment signaling domain comprising a TLR8 signaling domain and a secondary engulfment signaling domain comprising a TRAF6 signaling domain. CER-transduced CD4+ T cells were co-cultured with E7 TCR-transduced CD8+ T cells and HPV+SCC152 target cells and interrogated by mass cytometry (CyTOF) with viSNE for visualization of high dimensional single cell data (FIGS. 82-84). Intact CER-transduced CD4+ T cells are shown in plots displaying tSNE1 (horizontal) and tSNE2 (vertical) axes. 27 intracellular markers were used for the viSNE analysis. Each dot represents a single cell. […] Red represents high expression and blue represents low expression for each marker. Populations of CD4^+ T cells were generated using a clustering algorithm from all 27 markers and overlaid onto the viSNE map. […] Populations of CD4^+ T cells were generated using a clustering algorithm from all 18 markers and overlaid onto the viSNE map (FIG. 83A). […] Color plots by 18 intracellular markers (CD28, CCR7, CD45RA, PD1, CD127, Perforin, CD49d, CD85j, CD38, CD27, Granzyme B, CD57, CD25, CD69, CD154, CD56, HLA-DR, and TCRγδ) show the phenotype across viSNE ‘islands’ (FIG. 83B). Red represents high expression and blue represents low expression for each marker. Highlighted region with arrow indicates cells expressing T cell activation marker CD69. Populations of CD4^+ T cells were generated using a clustering algorithm from 18 intracellular markers (CD28, CCR7, CD45RA, PD1, CD127, Perforin, CD49d, CD85j, CD38, CD27, Granzyme B, CD57, CD25, CD69, CD154, CD56, HLA-DR, and TCRγ6) and overlaid onto the viSNE map. […] Color plots by the 18 intracellular markers show the phenotype across viSNE ‘islands’ (FIG. 84B). Red represents high expression and blue represents low expression for each marker. Highlighted region with arrow indicates cells expressing the naïve T cell marker CD45RA.

[2] = system: HCC159 lung adenocarcinoma cells; assay: Interferon Gamma secretion, HCC159 co-culture; type: cell-based; conditions: Osimeritinib 0, 1, 5 nM; 18 hours
Procedure: HCC159 lung adenocarcinoma cells were co-cultured with CER123- or CER126-expressing CD4+ T cells with increasing concentrations of Osimeritnib (0, 1 nM, 5 nM). After 18 hours of co-culture, bulk supernatants were evaluated using a LDH-based cytotoxicity assay. T cells assays were performed using purified, EGFR^+ (transduction marker), CER modified T cells 7 days after activation using CD3 & CD28 microbeads at effector:target cell ratios of 2:1 or 5:1. Control “Mock” T cells were transduced with vector alone. […] Bulk supernatants were also analyzed after 18 hours of co-culture for Interferon Gamma (IFNγ) secretion (FIG. 50). Control “Mock” T cells were transduced with vector alone.

[3] = system: H1975 NSCLC cells; assay: Phagocytosis of Osimeritinib-treated H1975 cells by CER122 T cells; type: cell-based; conditions: 500 nM osimeritinib, 12 hours, CD4+ T cells
Procedure: H1975 NSCLC cells were treated with 500 nM Osimeritinib and then labeled with pH-rodo red, a pH sensing dye, to indicate localization to low-pH retaining endosomes. CD4+ T cells were transduced with a lentiviral vector comprising a CER122 nucleic acid and tEGFR nucleic acid (transduction marker). CER122 has a polypeptide sequence as set forth in SEQ ID NO:149 and comprises a Tim4 binding domain, Tim4 transmembrane domain, and an engulfment signaling domain comprising a primary engulfment signaling domain comprising a TLR2 signaling domain and a secondary engulfment signaling domain comprising a DAP12 signaling domain. CER122-transduced T cells labeled with CELLTRACE Violet were co-cultured with Osimeritinib-treated H1975 NSCLC cells. Fluorescent microscopy images (40X) were obtained 12 hours after co-culture of H1975 cells and CER-expressing T cells (FIG. 47, top left panel). […] Phagocytic events can be visualized as pHrodo red targets within CELLTRACE Violet labeled T cells. An enlargement of phagocytosis of pHrodo red labeled H1975 cells by CELLTRACE Violet labeled CER122-modified T cells is shown in the bottom panel of FIG. 47, with white arrows indicating phagocytic events.

[4] = system: H1975 EGFR+/Luciferase+ cells; assay: Adoptive transfer of CER T cells with EGFR inhibitor in H1975 xenograft; type: in vivo, immunodeficient (NSG) mice; conditions: Osimeritinib 1 mg/kg intraperitoneally + 10e6 CER-transduced human T cells, NSG mice
Procedure: The combination of CER therapy and EGFR inhibitor therapy was also evaluated in vivo. […] H1975 EGFR+/Luciferase^+ cells were engrafted into immunodeficient (NSG) mice 14 days prior to initiation of study and evaluated for engraftment by bioluminescent emission and tumor volume seven days later. The day prior to CER adoptive transfer (day-1), animals with established tumors were randomized into groups and treated with Osimeritinib 1 mg/kg (intraperitoneally) and then infused by tail vein with 10e6 CER-transduced human T cells. Animals received 10 μg of systemic IL-2 every 24 hours×3 days following cell infusion and then monitored for tumor progression and cell expansion and persistence thereafter. Tumor volume measurements were obtained post-adoptive transfer in untreated, Osimeritinib treated (1 mg/kg)+mock-transduced T cells (vector only), and Osimeritinib (1 mg/kg)+CER122-transduced T cells (n=5/group) (FIG. 79).

B1: CER104: Tim4 binding and transmembrane domains, TLR8 primary and DAP12 secondary signaling domains; SEQ ID NO:133 (protein)
chain: MSKGLLLLWLVTELWWLYLTPAASEDTIIGFLGQPVTLPCHYLSWSQSRNSMCWGKGSCPNSKCNAELLRTDGTRIISRKSTKYTLLGKVQFGEVSLTISNTNRGDSGVYCCRIEVPGWFNDVKKNVRLELRRATTTKKPTTTTRPTTTPYVTTTTPELLPTTVMTTSVLPTTTPPQTLATTAFSTAVTTCPSTTPGSFSQETTKGSAFTTESETLPASNHSQRSMMTISTDIAVLRPTGSNPGILPSTSQLTTQKTTLTTSESLQKTTKSHQINSRQTILIIACCVGFVLMVLLFLAFLHHLFYWDVWFIYNVCLAKVKGYRSLSTSQTFYDAYISYDTKDASVTDWVINELRYHLEESRDKNVLLCLEERDWDPGLAIIDNLMQSINQSKKTVFVLTKKYAKSWNFKTAFYLALQRLMDENMDVIIFILLEPVLQHSQYLRLRQRICKSSILQWPDNPKAEGLFWQTLRNVVLTENDSRYNNMYVDSIKQYYFLGRLVPRGRGAAEAATRKQRITETESPYQELQGQRSDVYSDLNTQRPYYK
modifications: CER104 protein
Which “memory formation after antigen encounter” value ([1]; CD4+ T cells) does the source give for B1 here?
Its value is “associated with memory formation after antigen encounter”.

What about the “viSNE islands expressing T cell activation marker CD69” value ([1]; CD4+ T cells after antigen encounter) of the same molecule?
The value was “enrichment of islands expressing the T cell activation marker CD69”.

And the “viSNE islands expressing intracellular marker IFNγ” value ([1]; CD4+ T cells after co-culture with E7 TCR CD8+ T cells and SCC152 cells)?
The value was “enrichment of islands expressing the intracellular marker IFNγ”.

And the “viSNE islands expressing naïve T cell marker CD45RA within the CCR7+ population” value ([1]; compared to controls)?
The value was “loss of islands expressing the naïve T cell marker CD45RA”.

B2: CER123: Tim4 binding and transmembrane domains, TLR2 primary and TRAF6 secondary signaling domains; SEQ ID NO:150 (protein)
chain: MSKGLLLLWLVTELWWLYLTPAASEDTIIGFLGQPVTLPCHYLSWSQSRNSMCWGKGSCPNSKCNAELLRTDGTRIISRKSTKYTLLGKVQFGEVSLTISNTNRGDSGVYCCRIEVPGWFNDVKKNVRLELRRATTTKKPTTTTRPTTTPYVTTTTPELLPTTVMTTSVLPTTTPPQTLATTAFSTAVTTCPSTTPGSFSQETTKGSAFTTESETLPASNHSQRSMMTISTDIAVLRPTGSNPGILPSTSQLTTQKTTLTTSESLQKTTKSHQINSRQTILIIACCVGFVLMVLLFLAFLHRFHGLWYMKMMWAWLQAKRKPRKAPSRNICYDAFVSYSERDAYWVENLMVQELENFNPPFKLCLHKRDFIPGKWIIDNIIDSIEKSHKTVFVLSENFVKSEWCKYELDFSHFRLFDENNDAAILILLEPIEKKAIPQRFCKLRKIMNTKTYLEWPMDEAQREGFWVNLRAAIKSMSLLNCENSCGSSQSESDCCVAMASSCSAVTKDDSVGGTASTGNLSSSFMEEIQGYDVEFDPPLESKYECPICLMALREAVQTPCGHRFCKACIIKSIRDAGHKCPVDNEILLENQLFPDNFAKREILSLMVKCPNEGCLHKMELRHLEDHQAHCEFALMDCPQCQRPFQKFHINIHILKDCPRRQVSCDNCAASMAFEDKEIHDQNCPLANVICEYCNTILIREQMPNHYDLDCPTAPIPCTFSTFGCHEKMQRNHLARHLQENTQSHMRMLA
modifications: CER123 protein
How did the “Interferon Gamma (IFNγ) secretion” value [2] turn out when B2 was run?
The value was “inducible cytokine secretion”.

B3: CER122: Tim4 binding and transmembrane domains, TLR2 primary and DAP12 secondary signaling domains; SEQ ID NO:149 (protein)
chain: MSKGLLLLWLVTELWWLYLTPAASEDTIIGFLGQPVTLPCHYLSWSQSRNSMCWGKGSCPNSKCNAELLRTDGTRIISRKSTKYTLLGKVQFGEVSLTISNTNRGDSGVYCCRIEVPGWFNDVKKNVRLELRRATTTKKPTTTTRPTTTPYVTTTTPELLPTTVMTTSVLPTTTPPQTLATTAFSTAVTTCPSTTPGSFSQETTKGSAFTTESETLPASNHSQRSMMTISTDIAVLRPTGSNPGILPSTSQLTTQKTTLTTSESLQKTTKSHQINSRQTILIIACCVGFVLMVLLFLAFLHRFHGLWYMKMMWAWLQAKRKPRKAPSRNICYDAFVSYSERDAYWVENLMVQELENFNPPFKLCLHKRDFIPGKWIIDNIIDSIEKSHKTVFVLSENFVKSEWCKYELDFSHFRLFDENNDAAILILLEPIEKKAIPQRFCKLRKIMNTKTYLEWPMDEAQREGFWVNLRAAIKSYFLGRLVPRGRGAAEAATRKQRITETESPYQELQGQRSDVYSDLNTQRPYYK
modifications: CER122 protein
Which results are given for B3?
phagocytosis of H1975 cells [3]: phagocytic elimination of EGFR-mutated NSCLC cells; anti-tumor response (tumor volume) [4]: enhanced anti-tumor responses in EGFR+NSCLC model in vivo
